A protein production outcome set (Wang et al. 2014)

experiment: label from the status in PepcDB records

Row | Sequence | protein production
1 | MINMYIPQFNPRIRKDQKSGLFFFEIRDNEGKTVSYQSGFNTKREAENTALEIQQKLRQGYTLDRYTSLYDWFQTWYDLKIRPKKKLSQETKKNYQIYGETLKRLFGDKPIIDIKSSQYQRIMNVYGETVGYDYLSRINSVIRKIIKLAQSDKIVIDDFTSTVELFAGKDGQKVNEKYIHSVEDYHRLISYLENNLNYEDSVVNHVIYVIAKTGMRYGEIIGLTNNDTSLDEHYLHTYKRYNTSTWKWTNAKNESSKRYIPIDDKIVAALSNMIKERERINSLLRIKNKEEFLFFHYGLEHGIPSVATVNKALKKILKKLDIEPIITTKGLRHTYGSYLLHNNIDMGVVARILGHKDIQMLIQVYGHTLTEKIDKEFKEVEQIMNRI | failed
2 | MINSVITQMAEELRKASKVALFSHVSPDGDCIGSMLGIGLALEALGKEVAMFNPDPIPRNLSFLPGVDKITQSMPDPLPETLLFVDCADLQRVQLQREDLPADAVILNLDHHISNQNFGRINWVDSQAAASGELAYALVRRLNVELTQEIAANFYTALLTDTGSFKYANTTAKTHQIAGELMETGISLGDIHHFVFDQTPMVKLELLRRGLNQLQFFAEGQLGMMTLRKQDFEESGAEESLSEGLIDHARTVEGVEVAVLLKEVKPDVVRVSLRSNRWFDVNRIADGFGGGGHQRAAGCTLHLSLEEAKQKVRQIIEEELKLGRSHLEHHHHHH | not failed
3 | MIPPGAQTPCPAGTRGDEATQLRRFVASVPNRISIGAARGAAPLSALLGLLLLGGAWTLRDHPGPGHEAAALCLLAAAALLMCLACLQRNARSAPFLVLGQGRLRARSLSAPLDLLEVADLRLEDGVWFSAIVLELHGKALPAPSTRPLDPFAARAVSECRDGPRVRLLSPGWRLNGRNLSLLEAAEVIDLYLDIARAQARLRQLGEIPPSASSSLPTPRIFP | failed
4 | MIPPLQLSPLALVALLSLAAWAVVLLTRRRFWRCDQRLGQNTMAPGAAPAVVAVIPARDEAHTIGQTVRSLLNQSYPGRLVVVVVDDSSSDGTADAARAGAASVYDGPSRLIVVPGKPLEAGWSGKLWAVHQGLEVAAQAVPEARYVLLTDADIEHIPGNIARLVGKCERDGLVMASLMVKLRCESAWEHLLIPAFIFFFQKLYPFPLVNDPDRRVAGAAGGCILARRETLDAIGGVAAVRGALIDDCALAALLKEKGPIWLGLAGRTRSLRPNDELGDVWRMVARTAYVQLHHSPLRLIGAVIGMTLLYLVPPVSLIVGILSADFPAAVAGLVGWIGLAIIYRPTLHLYRRPPMAGLALPLAALLYTLMTIDSARRHYVGRGGEWKGRTYSGDASAGADPGPRSPAELAAHVEAITKASGTSFYGAMRILPRERRLAMYAIYAFCRVVDDIADGTAPEAEKRAELARWRDEIEALYARGGKGPEHPVARALDGPIRRFALPREDFLAVIEGMELDAGPRVRIRDITELEQYCDWVACAVGRLSNRIFGADPALSDDVARHTGLALQLTNILRDVVEDAERDRLYLPLSRLRAHGLKTTKDIDAVLVHPATAKVCAELASKAAAEFAEADRAQAACDRKTMRPAIIMKEVYRRIHAALMVRGWARLGEPVKVSRLTKLGIALRHGWL | failed
5 | MIPPSIRLTLRNLIVNTDPGTLLFLLGLPSFYLIVLGLMFQSIIPNVPFAGKDISYAQFLSPGVVAMQPFIAGSIGGSMLWSDRRWGMFEQLIVGPFHRIDYLLGIIYVSIIFSVGGAFLMFLVSYAITGFLVSYDINLLMIAVVLIVSSILFTSIFLVLSVFIRTIQTYNTVTMFVFFILDFASSAFYPINSRTPLGLRIVSYMNPLTYIVDAVRNMMFYKIGMQDYISLLIVVVLSGFFFLIALVSYGRARV | failed
6 | MIPPSYCFYYFIHSGGLLSLKIRCENFIRSIADLIRKAEIELPDDVVNALRKAESIEENQVAKSQLQAILKNIEIAKNHAVPMCQDTGIMIFFAELGTEFQPGFDLEAAVRDAVVLATREIPLRPNAVDPLNRNNSGNNTGSGIPDIHWKLVPGKQLKITVSPKGAGSENMSALRMFNPTEAGSIKNFVLETVINAGGMPCPPLTLGIGIGGSFDKAARLAKEALLEPLDAPMNELEQEVLEAVNALGIGCMGLGGSTTALAVHIKTAHCHTASLPVAINIQCWANRHASIVFGEEE | failed
7 | MIPSSSPMESRHRLSFSNEKTSRRRFQRIEKGVKFNTLKLVLICIMLGALFTIYRFRYPPLQIPEIPTSFGLTTDPRYVATAEINWNHMSNLVEKHVFGRSEYQGIGLINLNDNEIDRFKEVTKSDCDHVALHLDYAAKNITWESLYPEWIDEVEEFEVPTCPSLPLIQIPGKPRIDLVIAKLPCDKSGKWSRDVARLHLQLAAARVAASSKGLHNVHVILVSDCFPIPNLFTGQELVARQGNIWLYKPNLHQLRQKLQLPVGSCELSVPLQAKDNFYSAGAKKEAYATILHSAQFYVCGAIAAAQSIRMSGSTRDLVILVDETISEYHKSGLVAAGWKIQMFQRIRNPNAVPNAYNEWNYSKFRLWQLTEYSKIIFIDADMLILRNIDFLFEFPEISATGNNATLFNSGLMVVEPSNSTFQLLMDNINEVVSYNGGDQGYLNEIFTWWHRIPKHMNFLKHFWEGDEPEIKKMKTSLFGADPPILYVLHYLGYNKPWLCFRDYDCNWNVDIFQEFASDEAHKTWWRVHDAMPENLHKFCLLRSKQKAQLEWDRRQAEKGNYKDGHWKIKIKDKRLKTCFEDFCFWESMLWHWGETNSTNNSSTTTTSSPPHKTALPSL | failed
8 | MIPYAFIILLVVFFSVFDFSNLNVFKKKILLFFLSFILILFVGTRFETGDDWGEYTKVFDKIPLVSDLWNDNGMFLLFRMEPGYILFNSVIKSFGGSINEVFLLSSIVVISLFFVFQKRYTLLPFLAVLLYMRYGYMQFNMMFVRQGIAISIFFYSLKYIEDKKIIKYLLINILSSLFHSSLLIVLPLYFVINRRYSNIFLCTVVFISVLLSFFDWMGAILSFFPPFIQSSLTSYTESDVWGGMTGKINIAVAEKFILLLMCLRLREKLEQKNISFNLVFNLFVLSIICYYAFFQTYVFQQRTVLIFQLSTIFIISQLFLFFSVKNRMMVLFILNLMVIYFFFRYINIGKDVYLPYRSWLI | failed
9 | MIQAFLEKLPHLDVYGNPQYFFYLILAVLPIYIGLFFKKRFALYEIIFSLSFIVMMLTGSTFNQLKSLLAYVVGQSLLVFIYKAYRKRFNHTLVFYVTVCLSIFPLFLVKLIPAISEDGHQSLFGFLGISYLTFRAVAMIIEMRDGVLKEFTLWEFLRFLLFFPTFSSGPIDRFKRFNEDYINIPDRNELLDMLGQAIHYLMLGFLYKFILAYIFGSLIMPPLKELALEQGGVFNWPTLGVMYAFGFDLFFDFAGYTMFALAISNLMGIKSPINFDKPFKSRDLKEFWNRWHMSLSFWFRDFVFMRLVKLLVKNKVFKNRNVTSSVAYIINMLLMGFWHGLTWYYIAYGLFHGIGLVINDAWVRKKKNINKERRLAKKPLLPENKWTYALGVFITFNVVMFSFLIFSGFLDLLWFPQPHNK | failed
10 | MIQARSRRPLSCSLRSSSQNPIATTFLTGGKMDRIVRQILVKLLGGERSVYELIYYQDASLREFFELLNSLRDEGLIEVESGKVRITEKGREVAEKERLKFCGDVECECCEGTGLSINPYFKEILQKYSEIAKDRPETIEVYDQGFISLEGVIRRVEFVYDRGDLNGRIFVVGDDDLFGIAASLTGMPEKVAVVDIDERLINFINRVAEEYSLNVEAFVYDVQQAFPDELKRKFDVFVTDPVETIPGLKLFLSRGVSTLKGVGGAGYFGITTLEASRRKWYEIQRMIHDMGFIITDLRRRFNVYPEDEKNFFRFQEKLPIVRHLQAKVDFNWYNSTLFRIEAVKEPKPIVEGEMIIDEKVYKDDESWATPY | failed
11 | MIQCEECLCWQHSVCMGLLEESIPEQYICYICRDPPGQRWSAKYRYDKEWLNNGRMCGLSFFKENYSHLNAKKIVSTHHLLADVYGVTEVLHGLQLKIGILKNKHHPDLHLWACSGKRKDQDQIIAGVEKKIAQDTVNREEKKYVQNHKEPPRLPLKMEGTYITSEHSYQKPQSFGQDCKSLADPGSSDDDDVSSLEEEQEFHMRSKNSLQYSAKEHGMPEKNPAEGNTVFVYNDKKGTEDPGDSHLQWQLNLLTHIENVQNEVTSRMDLIEKEVDVLESWLDFTGELEPPDPLARLPQLKRHIKQLLIDMGKVQQIATLCSV | not failed
12 | MIQLVIRLGLLALLIFWTLYLIRPFVTILVWALVLAVAFNPIFLVLAKILGGRAKLAAGLLTAINLAIVIGPAAWLGLGAVDGIRDFAGELAAGDLVIPSPPAAIKTWPLIGTPLYEFWDQASTNLRSVVQRIAPYLKPFAGTLLGIAGDAGVGTIKFLLSVVVAGCLFPYGPQLVAAGRSFLSRIVPEQSEHFLDLAGATIRAVAQGVIGIAVVQALLAGIGFKLAGIPIAGLLALLVLLLSIVQIGGAIIMLPVMIWIWTDKDVTVAVLLTLFLGIVSILDNILKPLVMGRGLTTPALVILIGVIGGTLGHGIVGLFIGPIVLSVAWELTVAWIRTDRASAASQATIDR | failed
